Laboratory results taken from patent US4643988A, “Amphipathic peptides” (Research Corporation, priority 1984, dated 1987).

Experiment: Pore exclusion gradient gel electrophoresis of peptide/lipid complexes
Assay type: physicochemical
Conditions: range over complexes, ratio not stated
Protocol: Pore exclusion electrophoresis was performed on the resulting peptide/lipid complexes (FIG. 7), on 4-25% olyacrylamide gels using non-denaturing conditions for 24 to 36 hours. Gels were fixed and stained in the presence of 4% formaldehyde. DMPC is mixed with a trace of fluorescent marker (NBD). Different ratios of protein:lipid (1:1, 1:2.5, 1:5, 1:7.5) were incubated for 24-36 hours.

Substance: Apo A-I: apolipoprotein A-I, major HDL apoprotein component, isolated from human serum
- Stokes diameter: 80-200 Å
